The chains are these.
B1: Leucine-rich repeat transmembrane protein FLRT3 (Mus musculus), Q8BGT1 (parent)
chain: MISPAWSLFLIGTKIGLFFQVAPLSVVAKSCPSVCRCDAGFIYCNDRSLTSIPVGIPEDATTLYLQNNQINNVGIPSDLKNLLKVQRIYLYHNSLDEFPTNLPKYVKELHLQENNIRTITYDSLSKIPYLEELHLDDNSVSAVSIEEGAFRDSNYLRLLFLSRNHLSTIPGGLPRTIEELRLDDNRISTISSPSLHGLTSLKRLVLDGNLLNNHGLGDKVFFNLVNLTELSLVRNSLTAAPVNLPGTSLRKLYLQDNHINRVPPNAFSYLRQLYRLDMSNNNLSNLPQGIFDDLDNITQLILRNNPWYCGCKMKWVRDWLQSLPVKVNVRGLMCQAPEKVRGMAIKDLSAELFDCKDSGIVSTIQITTAIPNTAYPAQGQWPAPVTKQPDIKNPKLIKDQRTTGSPSRKTILITVKSVTPDTIHISWRLALPMTALRLSWLKLGHSPAFGSITETIVTGERSEYLVTALEPESPYRVCMVPMETSNLYLFDETPVCIETQTAPLRMYNPTTTLNREQEKEPYKNPNLPLAAIIGGAVALVSIALLALVCWYVHRNGSLFSRNCAYSKGRRRKDDYAEAGTKKDNSILEIRETSFQMLPISNEPISKEEFVIHTIFPPNGMNLYKNNLSESSSNRSYRDSGIPDSDHSHS
B2: Adhesion G protein-coupled receptor L3 (Mus musculus), Q80TS3 (parent)
chain: MWPPQLLILTMLLAPVVHGGKHNERHPALAAPLRHAERSPGGALPPRHLLQQPAAERSTAHRGQGPRGAARGVRGPGAPGAQIAAQAFSRAPIPMAVVRRELSCESYPIELRCPGTDVIMIESANYGRTDDKICDSDPAQMENIRCYLPDAYKIMSQRCNNRTQCAVVAGPDVFPDPCPGTYKYLEVQYECVPYKVEQKVFLCPGLLKGVYQSEHLFESDHQSGAWCKDPLQASDKIYYMPWTPYRTDTLTEYSSKDDFIAGRPTTTYKLPHRVDGTGFVVYDGALFFNKERTRNIVKFDLRTRIKSGEAIIANANYHDTSPYRWGGKSDIDLAVDENGLWVIYATEQNNGKIVISQLNPYTLRIEGTWDTAYDKRSASNAFMICGILYVVKSVYEDDDNEATGNKIDYIYNTDQSKDSLVDVPFPNSYQYIAAVDYNPRDNLLYVWNNYHVVKYSLDFGPLDSRSGPVHHGQVSYISPPIHLDSELERPPVRGISTTGSLGMGSTTTSTTLRTTTWNIGRSTTASLPGRRNRSTSTPSPAVEVLDDVTTHLPSAASQIPAMEESCEAVEAREIMWFKTRQGQVAKQPCPAGTIGVSTYLCLAPDGIWDPQGPDLSNCSSPWVNHITQKLKSGETAANIARELAEQTRNHLNAGDITYSVRAMDQLVGLLDVQLRNLTPGGKDSAARSLNKLQKRERSCRAYVQAMVETVNNLLQPQALNAWRDLTTSDQLRAATMLLDTVEESAFVLADNLLKTDIVRENTDNIQLEVARLSTEGNLEDLKFPENMGHGSTIQLSANTLKQNGRNGEIRVAFVLYNNLGPYLSTENASMKLGTEAMSTNHSVIVNSPVITAAINKEFSNKVYLADPVVFTVKHIKQSEENFNPNCSFWSYSKRTMTGYWSTQGCRLLTTNKTHTTCSCNHLTNFAVLMAHVEVKHSDAVHDLLLDVITWVGILLSLVCLLICIFTFCFFRGLQSDRNTIHKNLCISLFVAELLFLIGINRTDQPIACAVFAALLHFFFLAAFTWMFLEGVQLYIMLVEVFESEHSRRKYFYLVGYGMPALIVAVSAAVDYRSYGTDKVCWLRLDTYFIWSFIGPATLIIMLNVIFLGIALYKMFHHTAILKPESGCLDNINYEDNRPFIKSWVIGAIALLCLLGLTWAFGLMYINESTVIMAYLFTIFNSLQGMFIFIFHCVLQKKVRKEYGKCLRTHCCSGKSTESSIGSGKTSGSRTPGRYSTGSQSRIRRMWNDTVRKQSESSFITGDINSSASLNREGLLNNARDTSVMDTLPLNGNHGNSYSIAGGEYLSNCVQIIDRGYNHNETALEKKILKELTSNYIPSYLNNHERSSEQNRNMMNKLVNNLGSGSEDDAIVLDDAASFNHEESLGLELIHEESDAPLLPPRVYSTDNHQPHHYSRRRFPQDHSESFFPLLTDEHTEDLQSPHRDSLYTSMPALAGVPAADSVTTSTQTEAAAAKGGDAEDVYYKSMPNLGSRNHVHPLHAYYQLGRGSSDGFIVPPNKDGASPEGTSKGPAHLVTSL
partner: B1 chain

Variants of B1 are the subject of the first test. The note with it: with agrl3_mouse Adgrl3, Q80TS3.
On to F160N, for which the “effect of a mutation on the interaction” value is listed as “disrupting interaction strength”.

As for F160A, the “effect of a mutation on the interaction” value is listed as “decreasing interaction strength”.

In the case of R117T, the “effect of a mutation on the interaction” value is “decreasing interaction strength”.

Variants of B2 are the subject of a further test. The note with it: with flrt3_mouse Flrt3, Q8BGT1.
Take D332A: the “effect of a mutation on the interaction” value was “decreasing interaction strength”.

For the variant Y323A, the “effect of a mutation on the interaction” value was “disrupting interaction strength”.

Source of the values: IntAct's records for PubMed 26235031.
